B1: M-CSFM: 158 amino acid M-CSF with cysteine at position 31 replaced by serine (SEQ ID NO: 2) (protein)
chain: EEVSEYCSHMIGSGHLQSLQRLIDSQMETSSQITFEFVDQEQLKDPVCYLKKAFLLVQDIMEDTMRFRDNTPNAIAIVQLQELSLRLKSCFTKDYEEHDKACVRTFYETPLQLLEKVKNVFNETKNLLDKDWNIFSKNCNNSFAECSSQGHERQSEGS
B2: 5.6: bispecific M-CSFRGD variant from sort five; M-CSFM loop replaced by XXXRGDXXX motif; binds c-FMS and αvβ3 integrin (protein)
chain: EEVSEYCSHMIGSGHLQSLQRLIDTYPRGDMCSITFEFVDQEQLKDPVCYLKKAFLLVQDIMEDTMRFRDNTPNAIAIVQLQELSLRLKSCFTKDYEEHDKACVRTFYETPLQLLEKVKNVFNETKNLLDKDWNIFSKNCNNSFAECSSQGHERQSEGS
modifications: left off: small tags and cut ends
B3: M-CSFC31S,M27R: M-CSF double mutant containing both C31S and M27R; monomeric, monospecific c-FMS antagonist (protein)
chain: EEVSEYCSHMIGSGHLQSLQRLIDSQRETSSQITFEFVDQEQLKDPVCYLKKAFLLVQDIMEDTMRFRDNTPNAIAIVQLQELSLRLKSCFTKDYEEHDKACVRTFYETPLQLLEKVKNVFNETKNLLDKDWNIFSKNCNNSFAECSSQGHERQSEGS

Tests used:
[1] = system: human peripheral blood CD14+ monocytes differentiating to osteoclasts; test: Osteoclast differentiation assay of human CD14+ monocytes (TRAP staining); type: cell-based; settings: Example 14, CD14+ cells; for osteoclast formation: 50, 250, 1000 nM with M-CSFWT and RANKL
Source text: Differentiation assay—BMMs and CD14+ cells were obtained and grown as described above. The plates containing the monocytes were washed with PBS; the cells were detached using a cell scraper for BMMs or Accutase (Biological industries, Israel) for CD14^+; and 2×10^4 BMMs or 1×10^4 CD14^+ cells were transferred to each well in a 96-well plate. Osteoclast differentiation was induced as described in the ‘phosphorylation assay’ section. To determine the influence of M-CSFC31S and the M-CSFC31S,M27R on osteoclast differentiation, the proteins were added to the differentiation medium (with M-CSF and RANKL) in different concentrations (50 nM, 1 μM and 5 μM for BMMs and 50 nM, 250 nM and 1 μM for CD14^+). To determine the influence of human M-CSFWT on the differentiation, it was added to the cells in different concentrations (50 nM 1 μM and 5 μM) without adding murine M-CSFWT. Once the cells were fully differentiated, they were fixed with 4% paraformaldehyde and stained using the tartrate-resistant acid phosphatase (TRAP) staining kit (Sigma-Aldrich, USA) according to the manufacturer's protocol. As the positive control, cells were incubated with M-CSF and RANKL without inhibitors, and the negative control was comprised of cells that were incubated in differentiation medium without RANKL. […] Cells in each image were counted in a double-blind manner, and the number of nuclei in the osteoclasts was determined using ImageJ software. For the positive control of BMMs, an average of 28.33 osteoclasts and 135 nuclei per well were counted. For CD14^+ positive control, the average numbers of osteoclasts and nuclei were 14.5 and 75, respectively, per well. The results for each parameter were normalized to the positive control values.
In light of the above-described decrease in phosphorylation, it was hypothesized that incubation of M-CSFC31S,M27R with differentiating monocytes would result in decreased formation of osteoclasts. To test this premise, either BMMs or CD14^+ cells were incubated with murine or human M-CSFWT (20 ng/ml), respectively, and murine RANKL (20 ng/ml) together with M-CSFC31S and M-CSFC31S,M27R at concentrations of 50 and 1000 and 5000 nM for BMMs and 50, 250, 1000 nM for CD 14^+ cells. The cells were allowed to differentiate for 96 h or until they reached full differentiation. In BMMs incubated with M-CSFC31S, osteoclasts formed rapidly, and therefore they differentiated only for 72 h. Then, the cells were stained with a tartrate-resistant acid phosphatase (TRAP) staining kit (FIGS. 19A, B). […] This inhibition of differentiation behavior was observed also for M-CSFWT.

αvβ3 integrin = molecular target: T1, αvβ3 integrin (Homo sapiens, UniProt P05106+P06756, DEL719-788); test: YSD binding of M-CSFM to αvβ3 integrin; settings: even at high concentrations of 200 nM
T1 construct: purchased R&D Systems
Method: For expressing the M-CSFM gene and the two M-CSFRGD libraries on the yeast surface, the SDCAA medium was replaced by SGCAA medium (2% galactose, 0.67% yeast nitrogen base, 0.5% bacto casamino acids, 1.47% sodium citrate, 0.429% citric acid monohydrate) and the yeasts were incubated overnight at 30° C. until the culture reached OD600=10.0 (10^8 cells per ml). A number of cells equal to ten times the library size was added to 1 ml of PBS containing 1% bovine serum albumin (PBSA); the suspension was centrifuged, and the supernatant was removed. For binding analysis of M-CSFM and the M-CSFRGD libraries to c-FMS, yeast cells were incubated with mouse anti c-myc antibody, 9E10 (Abcam, Cambridge, MA, USA) in a 1:50 ratio and different concentrations of soluble Fc conjugated human c-FMS (R&D systems, USA) for 1 h at room temperature. After an additional washing step, cells were labeled with secondary PE anti mouse (Sigma-Aldrich, St. Louis, MO, USA) and goat anti human Fc FITC antibodies (Sigma-Aldrich) for 30 min at 4° C. in the dark. For binding analysis of M-CSFRGD libraries to integrin, the experiment was performed with integrin binding buffer (IBB; 20 mM Tris, pH7.5, 2 mM CaCl2, 100 mM NaCl, 1 mM MgCl2, and 1 mM MnCl2)+1% BSA. The yeast cells were incubated with chicken anti c-myc and different concentrations of soluble human αvβ3 integrin (R&D Systems, Minneapolis, MN, USA) for 1 h. […]

mature osteoclasts = test: Actin ring formation in mature osteoclasts; type: cell-based, mouse; settings: inhibitors 5 μM added to mature osteoclasts for 24 h; F-actin staining
Method: FIG. 23 are example pictures showing Actin ring formation in mature osteoclasts incubated with M-CSFRGD variants. Murine BMMs were allowed to differentiate into osteoclasts in the presence of M-CSF and RANKL for 72 h. Then, the cells were incubated for additional 24 h without (positive control) or with inhibitors (5 μM) followed by fixation and staining for F-actin and nuclei. Cells were able to form a solid actin ring (white arrowheads), scattered actin ring (white arrows) or amorphous actin distribution (barbed arrowheads). Pictures are representatives of 35 images acquired from five different wells per sample.
For a mature osteoclast to resorb bone properly, it must form unique structure termed “sealing zone”; this structure consists of an actin ring made from a dense actin mesh connected by adhesion complexes called podosomes. The formation of the actin ring involves several stages: at the beginning, podosomes are formed throughout the cell in a scattered manner, then groups of podosomes form small actin structures named belts and upon osteoclast maturation, the belts are moving to the cell periphery, cluster, and form the actin ring. Podosomes contain high levels of αvβ3 integrin which is essential for the formation of a proper actin ring with condensed podosome network. […]

T1 sequence (P06756 31-992 limits assumed, stated change not applied): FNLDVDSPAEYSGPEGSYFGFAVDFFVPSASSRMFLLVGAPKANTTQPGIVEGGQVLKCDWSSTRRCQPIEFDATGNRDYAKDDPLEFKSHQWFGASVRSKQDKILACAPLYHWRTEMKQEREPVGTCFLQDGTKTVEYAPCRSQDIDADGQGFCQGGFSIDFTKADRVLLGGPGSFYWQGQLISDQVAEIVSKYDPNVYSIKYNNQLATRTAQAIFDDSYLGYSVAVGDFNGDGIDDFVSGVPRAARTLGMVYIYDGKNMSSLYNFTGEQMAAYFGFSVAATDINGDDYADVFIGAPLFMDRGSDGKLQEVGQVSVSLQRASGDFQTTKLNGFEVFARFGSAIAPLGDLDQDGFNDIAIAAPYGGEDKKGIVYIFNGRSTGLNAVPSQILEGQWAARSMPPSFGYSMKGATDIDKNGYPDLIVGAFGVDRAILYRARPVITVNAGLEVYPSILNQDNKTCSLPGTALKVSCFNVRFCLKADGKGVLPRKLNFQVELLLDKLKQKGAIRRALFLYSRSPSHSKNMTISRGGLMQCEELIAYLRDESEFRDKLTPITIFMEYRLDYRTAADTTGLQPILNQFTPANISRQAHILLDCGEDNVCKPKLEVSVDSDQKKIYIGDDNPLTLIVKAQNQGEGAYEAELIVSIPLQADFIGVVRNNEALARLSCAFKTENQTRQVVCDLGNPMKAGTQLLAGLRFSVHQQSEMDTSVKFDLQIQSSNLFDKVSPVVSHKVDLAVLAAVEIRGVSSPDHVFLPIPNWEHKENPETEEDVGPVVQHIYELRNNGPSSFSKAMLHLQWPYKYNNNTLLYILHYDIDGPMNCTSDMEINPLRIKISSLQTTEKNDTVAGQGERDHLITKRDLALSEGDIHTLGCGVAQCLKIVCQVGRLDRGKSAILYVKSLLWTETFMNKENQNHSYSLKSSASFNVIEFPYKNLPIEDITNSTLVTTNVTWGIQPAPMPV
T1 sequence (P05106 27-718 limits assumed, stated change not applied): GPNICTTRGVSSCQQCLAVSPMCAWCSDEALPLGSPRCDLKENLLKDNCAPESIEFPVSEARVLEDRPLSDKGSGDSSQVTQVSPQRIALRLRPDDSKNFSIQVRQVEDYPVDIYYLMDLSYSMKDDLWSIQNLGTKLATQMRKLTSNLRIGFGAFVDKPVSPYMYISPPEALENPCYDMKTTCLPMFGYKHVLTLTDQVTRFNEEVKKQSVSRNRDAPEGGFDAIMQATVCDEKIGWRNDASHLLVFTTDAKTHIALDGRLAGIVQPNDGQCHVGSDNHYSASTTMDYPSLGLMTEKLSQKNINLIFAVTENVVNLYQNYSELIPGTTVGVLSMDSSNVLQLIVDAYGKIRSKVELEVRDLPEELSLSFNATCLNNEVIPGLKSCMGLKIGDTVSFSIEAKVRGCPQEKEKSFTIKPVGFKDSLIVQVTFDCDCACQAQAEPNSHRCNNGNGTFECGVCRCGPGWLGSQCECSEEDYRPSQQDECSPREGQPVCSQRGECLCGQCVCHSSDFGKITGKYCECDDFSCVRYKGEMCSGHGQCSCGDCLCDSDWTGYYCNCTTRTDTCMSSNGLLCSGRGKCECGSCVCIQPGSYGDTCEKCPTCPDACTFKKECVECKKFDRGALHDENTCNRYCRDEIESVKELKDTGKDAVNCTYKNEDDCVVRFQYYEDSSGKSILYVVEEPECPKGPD

Row | Molecule | number of osteoclasts and number of nuclei [1] | osteoclast formation [1] | binding to αvβ3 integrin (αvβ3 integrin) | actin ring formation (mature osteoclasts)
1 | B1 | the opposite result | highly accelerated in the two lower concentrations | did not bind | –
2 | B2 | – | – | – | showed the same phenotype as cRGD and M-CSFαvβ3
3 | B3 | a decrease in both parameters, in a dose-dependent manner | significantly inhibited, in a dose-dependent manner | – | –

From patent US11976099B2, “Compositions and methods for treatment of bone associated diseases” (THE NATIONAL INSTITUTE FOR BIOTECHNOLOGY IN THE NEGEV LTD., priority 2016, dated 2024)
